Consider seven molecules from PMC12529927, “Functional microRNA targeting without seed pairing”.

Data set [1] has as its target T1, AGO2 (loaded with guide RNA) (Homo sapiens, UniProt Q9UKV8 1-859). Description: filter binding; no boost over m9_22; 18 mM HEPES pH 7.4, 100 mM K-acetate, 1 mM Mg-acetate, 0.01% IGEPAL, 0.01 mg/mL yeast tRNA, 5 mM DTT, BSA, glycerol, 37 C, 4 h, 1-5 pM target; kinetics with 10. To be noted: protein: recombinant, tags: 3xFLAG-SUMOEu1 (removed by SENPEuB cleavage), label: 32P target, offset +3.

The target of data set [2] is T1, AGO2 (loaded with guide RNA). Description: filter binding; modest boost over m9_22; 18 mM HEPES pH 7.4, 100 mM K-acetate, 1 mM Mg-acetate, 0.01% IGEPAL, 0.01 mg/mL yeast tRNA, 5 mM DTT, BSA, glycerol, 37 C, 4 h, 1-5 pM target; kinetics with 10. To be noted: protein: recombinant, tags: 3xFLAG-SUMOEu1 (removed by SENPEuB cleavage), label: 32P target, offset +3.
For data set [3] the target is unchanged. Description: filter binding; modest boost over m11_23; 18 mM HEPES pH 7.4, 100 mM K-acetate, 1 mM Mg-acetate, 0.01% IGEPAL, 0.01 mg/mL yeast tRNA, 5 mM DTT, BSA, glycerol, 37 C, 4 h, 1-5 pM target; kinetics with 10. Particulars: protein: recombinant, tags: 3xFLAG-SUMOEu1 (removed by SENPEuB cleavage), label: 32P target, offset +2.
The target is the same in data set [4]. Description: filter binding; length-matched; slightly weaker than m2_6; 18 mM HEPES pH 7.4, 100 mM K-acetate, 1 mM Mg-acetate, 0.01% IGEPAL, 0.01 mg/mL yeast tRNA, 5 mM DTT, BSA, glycerol, 37 C, 4 h, 1-5 pM target; kinetics with 10. To be noted: protein: recombinant; tags: 3xFLAG-SUMOEu1 (removed by SENPEuB cleavage); label: 32P target; g11-23 and g2-5 paired, offset +2.

T1 sequence (Q9UKV8 whole entry): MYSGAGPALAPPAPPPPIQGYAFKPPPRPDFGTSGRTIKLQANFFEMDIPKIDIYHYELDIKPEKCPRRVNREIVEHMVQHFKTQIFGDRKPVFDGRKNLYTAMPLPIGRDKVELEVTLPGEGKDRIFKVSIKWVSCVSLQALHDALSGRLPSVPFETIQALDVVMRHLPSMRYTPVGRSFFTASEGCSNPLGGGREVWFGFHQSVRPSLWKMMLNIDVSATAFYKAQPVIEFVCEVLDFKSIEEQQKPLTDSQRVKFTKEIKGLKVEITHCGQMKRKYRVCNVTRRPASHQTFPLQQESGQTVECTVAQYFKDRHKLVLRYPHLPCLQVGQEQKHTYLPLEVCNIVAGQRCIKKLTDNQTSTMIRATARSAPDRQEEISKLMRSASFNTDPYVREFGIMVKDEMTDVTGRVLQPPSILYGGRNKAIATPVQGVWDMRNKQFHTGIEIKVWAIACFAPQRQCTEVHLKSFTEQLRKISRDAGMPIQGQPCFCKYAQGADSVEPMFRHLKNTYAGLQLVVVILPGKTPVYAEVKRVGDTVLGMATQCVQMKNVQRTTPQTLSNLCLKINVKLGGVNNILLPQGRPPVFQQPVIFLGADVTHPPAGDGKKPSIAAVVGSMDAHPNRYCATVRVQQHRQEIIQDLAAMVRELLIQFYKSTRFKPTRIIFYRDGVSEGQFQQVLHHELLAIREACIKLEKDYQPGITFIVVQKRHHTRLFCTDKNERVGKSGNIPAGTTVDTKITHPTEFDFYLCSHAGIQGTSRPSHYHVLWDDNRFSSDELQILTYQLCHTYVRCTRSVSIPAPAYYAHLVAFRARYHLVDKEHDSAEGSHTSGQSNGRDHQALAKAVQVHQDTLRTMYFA

B1: miR-124 mut / m9_22|+3|m2 (mixed)
RNA 1: UCUGGCUCGCGGUGAAUGCCAA
RNA 2: UUUUUUGGCAUUCACCGCUUUUUUUUUGUUUU
modifications: 5'-phosphate guide
On to B1, for which the binding result in data set [1] (g9-22 and g2 paired) is recorded as “binds”.

B2: miR-124 mut / m9_22|+3|m2_5 (mixed)
RNA 1: UCUGGCUCGCGGUGAAUGCCAA
RNA 2: UUUUUUGGCAUUCACCGCUUUUUUCCAGUUUU
modifications: 5'-phosphate guide
Take B2: the binding result in data set [2] (g9-22 and g2-5 paired) is “binds”.

B3: miR-124 mut / m9_22|+3|m2_3 (mixed)
RNA 1: UCUGGCUCGCGGUGAAUGCCAA
RNA 2: UUUUUUGGCAUUCACCGCUUUUUUUUAGUUUU
modifications: 5'-phosphate guide
Consider B3, for which the binding result in data set [1] (g9-22 and g2-3 paired) is listed as “binds”.

B4: miR-124 mut / m9_22|+3|m2_4 (mixed)
RNA 1: UCUGGCUCGCGGUGAAUGCCAA
RNA 2: UUUUUUGGCAUUCACCGCUUUUUUUCAGUUUU
modifications: 5'-phosphate guide
B4: the binding result in data set [2] (g9-22 and g2-4 paired) is “binds”.

B5: miR-155 mut / m11_23|+2|m2_5 (mixed)
RNA 1: UUCGUGCUAAUCGUGAUAGGGGU
RNA 2: UUUUUUACCCCUAUCACGACCUUUUUACGAUUUUUUUUUUUUUU
modifications: 5'-phosphate guide
With B5, in data set [3] (g11-23 and g2-5 paired), the binding result was “binds”.

B6: miR-155 mut / m11_23|+2|m2_6 (mixed)
RNA 1: UUCGUGCUAAUCGUGAUAGGGGU
RNA 2: UUUUACCCCUAUCACGACCUUUUCACGAUUUU
modifications: 5'-phosphate guide
Turning to B6, the binding result in data set [3] (g11-23 and g2-6 paired) is listed as “binds”.

B7: miR-155 mut / m11_23|+2|m2_5 (repeat) (mixed)
RNA 1: UUCGUGCUAAUCGUGAUAGGGGU
RNA 2: UUUUACCCCUAUCACGACCUUUUUACGAUUUU
modifications: 5'-phosphate guide
B7: the binding result in data set [4] is given as “binds”.
